According to the supplement of paper PMC6757056:
± gives the standard deviation of the averaged measurements.

B1: library; a variant is named by its letters at N, in order (parent)
chain: GCUGUCACCGAGAAACUGUGAAGUAUAUCUUAAACCUGGGCACUUAAAAGAUAUAUGGAGUUAGUAGUGCAACCUGCUCGGUCUGAUGAGUCCNNNNNNGGACGAAACAGC

Experiments:
[1] = variants of: B1; experiment: normalized RNA/DNA level without ligand (relative to sTRSVctl = 100) (log10 (% of sTRSVctl)); HEK293T; ligand: cyclic di-GMP (c-di-GMP-II aptamer); higher = less ribozyme self-cleavage, higher mRNA level; conditions: reporter: mCherry (pCS4076), ligand present: no
Method in brief: (§1)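 Library plasmids encoding reporter-linked ribozyme switches (mCherry, or eGFP for some folinic acid experiments) were transfected into HEK293T at 4 µg per 6-well well. Ligand, when used, was added 1 h before transfection. Total RNA was extracted with EDTA 72 h later, then reverse-transcribed, amplified, barcoded and sequenced. RNA level was RNA reads over DNA reads, divided by a spiked-in non-cleaving control (or the top 25 sequences), ×100, log10; only sequences with ≥100 DNA reads were kept.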

[2] = variants of: B1; experiment: normalized RNA/DNA level with ligand (relative to sTRSVctl = 100) (log10 (% of sTRSVctl)); HEK293T; ligand: cyclic di-GMP (c-di-GMP-II aptamer); ligand concentration (+) RNA-Seq: 1 mM; higher = less ribozyme self-cleavage, higher mRNA level; conditions: reporter: mCherry (pCS4076), ligand present: yes
Method in brief: as §1

| Variant | normalized RNA/DNA level without ligand (log10) [1] | normalized RNA/DNA level with ligand (log10) [2] |
| --- | --- | --- |
| UUAAUA | 1.64 ± 0.044 | 1.8 ± 0.16 |
| GGACCU | 1.74 ± 0.07 | 1.85 ± 0.05 |
| AGUCUU | 1.726 ± 0.0047 | 1.84 ± 0.11 |
| GUCCAG | 1.76 ± 0.07 | 1.83 ± 0.1 |
| GGUUAC | 1.76 ± 0.057 | 1.87 ± 0.033 |
| CACUAU | 1.52 ± 0.067 | 1.72 ± 0.076 |
| GGUCCA | 1.777 ± 0.015 | 1.95 ± 0.022 |
| CAAGGG | 1.6 ± 0.063 | 1.8 ± 0.072 |
| GUCAGC | 1.67 ± 0.017 | 1.83 ± 0.17 |
| UGCCUG | 1.78 ± 0.047 | 1.88 ± 0.14 |
| UGCCUC | 1.77 ± 0.072 | 1.9 ± 0.15 |
| ACCCUA | 1.624 ± 0.011 | 1.78 ± 0.072 |
| UGCAGA | 1.63 ± 0.031 | 1.8 ± 0.096 |
| CGCGGU | 1.67 ± 0.02 | 1.87 ± 0.13 |
| UGCUGG | 1.696 ± 0.014 | 1.87 ± 0.15 |
| UUCCUU | 1.73 ± 0.018 | 1.9 ± 0.099 |
| AAUCCA | 1.65 ± 0.025 | 1.79 ± 0.088 |
| UUUUAC | 1.74 ± 0.055 | 1.87 ± 0.14 |
| GAGGGC | 1.66 ± 0.057 | 1.82 ± 0.077 |
| GGGAAU | 1.6 ± 0.095 | 1.79 ± 0.14 |

| Variant | normalized RNA/DNA level without ligand (log10) [1] | normalized RNA/DNA level with ligand (log10) [2] |
| --- | --- | --- |
| UUAGUC | 1.72 ± 0.048 | 1.83 ± 0.086 |
| AGUUGC | 1.67 ± 0.029 | 1.82 ± 0.12 |
| UGAGAG | 1.6931 ± 0.00099 | 1.87 ± 0.098 |
| AAUCGU | 1.65 ± 0.038 | 1.81 ± 0.11 |
| GAAGUA | 1.64 ± 0.021 | 1.76 ± 0.061 |
| CGUGAG | 1.7 ± 0.026 | 1.83 ± 0.05 |
| CCCAUC | 1.728 ± 0.0037 | 1.84 ± 0.14 |
| CACUCC | 1.74 ± 0.077 | 1.84 ± 0.091 |
| CGAGGG | 1.617 ± 0.014 | 1.76 ± 0.036 |
| AACAAA | 1.45 ± 0.11 | 1.65 ± 0.079 |
| GAUGAA | 1.45 ± 0.1 | 1.65 ± 0.067 |
| ACCUAC | 1.7 ± 0.02 | 1.85 ± 0.075 |
| GAUCGG | 1.747 ± 0.013 | 1.82 ± 0.034 |
| AGUACU | 1.7515 ± 2.5e-05 | 1.85 ± 0.089 |
| CAGCUC | 1.7753 ± 0.00068 | 1.87 ± 0.099 |
| CCAAGC | 1.59 ± 0.059 | 1.76 ± 0.13 |
| UGUUCU | 1.75 ± 0.051 | 1.88 ± 0.13 |
| GUAUAA | 1.501 ± 0.012 | 1.69 ± 0.088 |
| CACGUA | 1.504 ± 0.014 | 1.7 ± 0.056 |
| UAGAUU | 1.6 ± 0.028 | 1.79 ± 0.067 |

| Variant | normalized RNA/DNA level without ligand (log10) [1] | normalized RNA/DNA level with ligand (log10) [2] |
| --- | --- | --- |
| CGAAGC | 1.7 ± 0.06 | 1.81 ± 0.054 |
| UGGAAG | 1.68 ± 0.026 | 1.81 ± 0.17 |
| AUUGCU | 1.73 ± 0.047 | 1.88 ± 0.081 |
| UGGCGG | 1.854 ± 0.013 | 1.93 ± 0.13 |
| AAGCAG | 1.79 ± 0.081 | 1.9 ± 0.11 |
| CAAUGA | 1.53 ± 0.056 | 1.74 ± 0.12 |
| CUCCCU | 1.661 ± 0.0018 | 1.76 ± 0.05 |
| ACCGUA | 1.51 ± 0.034 | 1.68 ± 0.13 |
| AAUGCU | 1.73 ± 0.036 | 1.85 ± 0.12 |
| AACGUG | 1.55 ± 0.083 | 1.7 ± 0.096 |
| AACGUC | 1.66 ± 0.024 | 1.78 ± 0.11 |
| UCUCUA | 1.666 ± 0.0017 | 1.82 ± 0.12 |
| UCUCUG | 1.718 ± 0.015 | 1.87 ± 0.14 |
| UCUCUC | 1.81 ± 0.069 | 1.9 ± 0.12 |
| CACUGG | 1.7 ± 0.035 | 1.81 ± 0.13 |
| CGCUCA | 1.47 ± 0.05 | 1.68 ± 0.15 |
| AUUCUA | 1.595 ± 0.0027 | 1.78 ± 0.13 |
| CGUCCC | 1.75 ± 0.029 | 1.9 ± 0.086 |
